Laboratory results: US6790646B2, “Mutants of monoamine oxidase B” (Research Development Foundation, priority 1998, dated 2004)
Changes are numbered by the printed parent chain.

T1: MAO B (Homo sapiens, UniProt P27338, F423A)
T1 construct: expressed in transfected cells; host or cells: COS-7
T1 sequence (P27338 2-520 F423A): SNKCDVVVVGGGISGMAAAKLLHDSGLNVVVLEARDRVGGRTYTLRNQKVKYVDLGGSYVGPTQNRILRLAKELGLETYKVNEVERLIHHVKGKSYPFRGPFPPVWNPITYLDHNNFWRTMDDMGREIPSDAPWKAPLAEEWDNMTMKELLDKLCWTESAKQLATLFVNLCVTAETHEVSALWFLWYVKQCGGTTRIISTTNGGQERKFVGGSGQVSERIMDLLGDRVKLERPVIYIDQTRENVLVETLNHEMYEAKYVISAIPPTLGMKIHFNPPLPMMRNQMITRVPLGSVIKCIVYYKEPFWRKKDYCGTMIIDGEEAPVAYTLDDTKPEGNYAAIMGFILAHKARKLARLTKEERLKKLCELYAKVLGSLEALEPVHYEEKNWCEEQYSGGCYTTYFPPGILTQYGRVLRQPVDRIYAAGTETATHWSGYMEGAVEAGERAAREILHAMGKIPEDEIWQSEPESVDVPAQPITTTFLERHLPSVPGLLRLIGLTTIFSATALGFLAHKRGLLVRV

T2: MAO B (Homo sapiens, UniProt P27338, E427Q)
T2 construct: expressed in transfected cells; host or cells: COS-7
T2 sequence (P27338 2-520 E427Q): T1 sequence (P27338 2-520 F423A) with A422F, E426Q

B1: WT: wild-type human MAO B enzyme expressed from cDNA in pSVK3 in COS-7 cells (protein, UniProt P27338 2-520, looked up)
Amine oxidase …: T1 sequence (P27338 2-520 F423A) with A422F
B2: T428 S: human MAO B mutant, Thr428 changed to Ser (protein, UniProt P27338 2-520, looked up, variant T428S)
Amine oxidase …: T1 sequence (P27338 2-520 F423A) with A422F, T427S
B3: F423 A: human MAO B mutant, Phe residue at position 423 changed to Ala (protein, UniProt P27338 2-520, looked up, variant F423A)
Amine oxidase …: T1 sequence (P27338 2-520 F423A)
B4: E427 Q: human MAO B mutant, Glu427 changed to Gln (protein, UniProt P27338 2-520, looked up, variant E427Q)
Amine oxidase …: T1 sequence (P27338 2-520 F423A) with A422F, E426Q
B5: T428 A: human MAO B mutant, Thr428 changed to Ala (protein, UniProt P27338 2-520, looked up, variant T428A)
Amine oxidase …: T1 sequence (P27338 2-520 F423A) with A422F, T427A

Legend:
MAO B [1] = test: pH profiles of wild-type and mutant MAO B enzymatic activity with [14C]benzylamine; format: biochemical, human; settings: pH 6.0 to 9.0, 500 μM benzylamine
Procedure: (§1) Aliquots (20 μl) of transfected COS-7 cell homogenates were incubated for 10 min at 37° C. in the presence of 500 μM (^14C)benzylamine (2.5 mCi/mmol) in 50 mM sodium phosphate buffer, pH 6.0, 6.5, 7.0, 7.5, 8.0, 8.5 or 9.0 (200 μl total volume). Reactions were stopped by addition of 25 μl of 6 N HCl. Parallel assays were carried out with untransfected COS-7 homogenates as a control. Samples were processed as previously described (28) and the derived specific activity values (nmol/min·mg protein) were divided by wild-type or mutant MAO B concentration, determined for each experiment, to obtain enzymatic activity values (nmol/min·m g MAO B). Enzymatic activities were determined in duplicate for three separate experiments.
(§2) To examine the possibility that the mutation effects a proton-dependent step in the reaction, the enzymatic activity of the mutant and wild-type MAO B enzymes was determined at different pH values from 6.0 to 9.0 (FIG. 4).

MAO B [2] = test: Kinetic analysis of wild-type and mutant MAO B with [14C]PEA substrate (transfected COS-7 cell homogenates); format: biochemical, human; settings: PEA substrate; for Kcat / Km / Vmax: pH 7.5, 37° C., apparent, mean + S.E.M., n=3; for activity relative to wild-type: activity too low to determine kinetic parameters
Procedure: (§3) The wild-type and mutant MAO B enzymes were expressed in mammalian COS-7 cells, and the enzymatic properties of the native enzyme and its mutant enzymes were determined and compared. Wild-type and mutant MAO B cDNAs were transiently transfected into COS-7 cells by electroporation. Cells were harvested during late log phase growth and resuspended to a concentration of 3.125×10^6 cells/ml in DMEM supplemented with 10% fetal bovine serum (FBS). Fifteen μg of normal or mutant cDNA were added to 0.8 ml (2.5×10^6 cells) of cell suspension. Electroporation was carried out in a Bio-Rad Gene Pulser with a setting of 0.25 kV and 500 μF. Cells were resuspended in 15 ml of DMEM/FBS and incubated at 37° C. with 5% CO2 for 48 h.
(§4) Aliquots (20 μl) of transfected COS-7 cell homogenates were incubated for 10 min at 37° C. in the presence of various concentrations of [^14C]PEA (20 mCi/mmol) or [^14C]benzylamine (10 mCi/mmol) in 50 mM sodium phosphate buffer, pH 7.5 (200 μl total volume). Substrate concentrations ranged from 0.25-2.5 times the Km value (determined in pilot experiments) to yield 10 equally-spaced reciprocal increments. Parallel assays were carried out with untransfected COS-7 cell lysates as a control. Reactions were stopped by addition of 25 μl of 6 N HCl and the deaminated products were extracted by vortexing for 30 seconds with 500 μl of toluene or toluene:ethyl acetate (1:1) for benzylamine or PEA, respectively. Samples were processed as described previously (28). Apparent Km and Vmax values were determined by linear regression analysis of Lineweaver-Burk plots. Kcat values were calculated from the Vmax values divided by the concentration of wild-type or mutant MAO B determined in each experiment. Expression levels of wild-type or mutant MAO B were determined in triplicate for six separate experiments as follows: wild-type=11.1+2.07; F423A=9.30+1.89; E427Q=10.3+1.29; T428A=10.2+2.07; T428S=10.2+1.53 pmol MAO B/mg protein. Data are given as means +S.E.M. pmol/mg of protein determined using a subunit molecular weight of 58,800.

MAO B [3] = test: Kinetic analysis of wild-type and mutant MAO B with [14C]benzylamine substrate (transfected COS-7 cell homogenates); format: biochemical, human; settings: for Kcat / Km / Vmax: pH 7.5, 37° C., apparent, mean + S.E.M., n=3; for Kcat reduced by: versus wild-type; for activity relative to wild-type: activity too low to determine kinetic parameters
Procedure: as §3, §4

COS-7 cells = test: Expression levels of wild-type or mutant MAO B in transfected COS-7 cells; settings: transiently transfected COS-7 cells, triplicate, six experiments, mean + S.E.M., subunit molecular weight 58,800
Procedure: as §3, §4

MAO B [4] = target: T1, MAO B; test: Kinetic analysis of wild-type and mutant MAO B with [14C]PEA substrate (transfected COS-7 cell homogenates); format: biochemical; settings: substrate not stated in the sentence (Tables 1 and 2: PEA and benzylamine)
Procedure: as §3, §4

MAO B [5] = target: T2, MAO B; test: pH profiles of wild-type and mutant MAO B enzymatic activity with [14C]benzylamine; format: biochemical; settings: pH 6.0 to 9.0, 500 μM benzylamine
Procedure: as §1, §2

| decrease in activity compared to the wild-type enzyme (MAO B [4]) [% reduction] | activity relative to wild-type (MAO B [5]) | Molecule | pH profile of enzymatic activity (MAO B [1]) | Kcat (MAO B [2]) | Km (MAO B [2]) [µM] | Vmax (MAO B [2]) | Kcat (MAO B [3]) | Km (MAO B [3]) [µM] | Vmax (MAO B [3]) | Expression level (COS-7 cells) | Kcat relative to wild-type (reduction) (MAO B [2]) | Km compared with wild-type (MAO B [3]) | Kcat reduced by (MAO B [3]) [%] | activity relative to wild-type (MAO B [2]) | activity relative to wild-type (MAO B [3]) | activity relative to wild-type (MAO B [2]; listed as E427Q) [% wt] | activity relative to wild-type (MAO B [3]; listed as E427Q) [% wt] |
| --- | --- | --- | --- | --- | --- | --- | --- | --- | --- | --- | --- | --- | --- | --- | --- | --- | --- |
| – | – | B1 | characteristic increase in activity with increasing pH | 29.8 + 5.0 min^−1 | 3.38 | 0.325 + 0.008 nmol/min · mg protein | 83.0 + 14.4 min^−1 | 19.3 | 0.879 + 0.19 nmol/min · mg protein | 11.1+2.07 pmol MAO B/mg protein | – | – | – | – | – | – | – |
| – | – | B2 | – | 14.5 + 2.0 min^−1 | 11.6 | 0.162 + 0.22 nmol/min · mg protein | 27.2 + 5.8 min^−1 | 5.4 | 0.236 + 0.05 nmol/min · mg protein | 10.2+1.53 pmol MAO B/mg protein | ~50 % of wild-type | approximately equal to wild-type | 67 | – | – | – | – |
| > 95 | – | B3 | fairly similar to wild-type MAO B | – | – | – | – | – | – | 9.30+1.89 pmol MAO B/mg protein | – | – | – | (<5% wt) | (<5% wt) | – | – |
| – | < 5 % of wild-type | B4 | essentially independent of pH | – | – | – | – | – | – | 10.3+1.29 pmol MAO B/mg protein | – | – | – | (<5% wt) | (<5% wt) | < 5 | < 5 |
| – | – | B5 | – | 14.3 + 2.6 min^−1 | 11.1 | 0.161 + 0.039 nmol/min · mg protein | 46.2 + 19.1 min^−1 | 18.6 | 0.374 + 0.06 nmol/min · mg protein | 10.2+2.07 pmol MAO B/mg protein | ~50 % of wild-type | approximately equal to wild-type | 44 | – | – | – | – |
